Measurements taken from a protein production outcome set (Wang et al. 2014).

Assay: label from the status in PepcDB records

| Sequence | protein production |
| --- | --- |
| MTETHQQLMKLPVNQVFFKYFVPATLGLILMSANILIDGLFVGNGIGTAALAGVNLSYPVISLIMAIALWIGIGGATKYSISIGENRPKKASSIFSLALFLALIISVLLGVFGILNIQTISIWLGANSDTSSFVIEYLSVMFLFGWVITLEQVLSIFVRNDGSPKLSMMALATTSIVNIILNFYTIMILDMGVTGAAISTVLGGFAGLLVLSLHFFNRQAQLRRPAFQWSWKSLMHIFAIGFPSFLAEAGLLVFVTGYNLAMASLAGTEGVAAFSVINYLHGFMFLSFFGIEMALQPMISYYHGAEETEQIKSSMKIGEKTAVILGILLLVIGWGAAPFLVGLFGIESTEIQQLAIDGIRLFFIGYTFLGYNFVYMSYFQSIGRAGSSVVIIILRSFVSLFILLWILPKFIGVTGVWLSLPLSEFFVAVLLFFIARKHVMGKGNPAIGKG | failed |
| VGKLKIYFGFAAGVGKTYAMLSDAKDQLAAGVDVVAGYIEPHAREETLRMLEGIPIIPPKAINHKNIALKEFDLDEALKRKPELILVDELAHTNASGVRNKKRFQDVEELLQAGIDVYTTVNVQHIESLNDIVEGITKVAVRETIPDYVFDEADRVKLIDIEPDELLKRLEQGKIYQPARAKTAMQNFFTRENLKLLREIAMRKAADRISHEYDQTGIYPE | not failed |
| IIGNAEAICLPELGITHLEARIDTGAQTSSLHVDNIDCFEKDGQSYVAFDLHPDVYHLEQVVRCTAKLKANRKVKSSNGTFEHRCVITTMLRLGDQEWPIDITLTNREKMTYMMLLGRQGMADKVLVDPSQSH | failed |
| MSSSNQDISIENTDLLTEISVAYYQDGATQEEISRKFAISRAKVGRMLKQARDEGIVEITVKYHPVFSAKIEQRLIERFGVKRALVALDQPNEEAQRLQVSGLVSNYLTSTLKNGMVVTVGQGRNVSSVAHHIGVITPRDCKFVCGIGGIHPRGGMYNADHICRQLAKKYGGTSETLYAPAYAENREQKMAFMQNATVKQTLDLARKADVALVGIGDMSENSYMVDLGWFTPDEVVQSRLKQGVVGDFAGYDFFDIHGNVANTVMSDRVIGLGIEEFRPIAEVIAIAAENSKPLALLGALRTGAIDVIATSVSNALTVLNLDEQMHGNAASES | failed |
| MMTAPGIYYDGRTSARRTVRLTLEGNRLLVAGEGVETSAELSRLAISSPLSTARRSVRFPSGALCEVSDTRFVDELMRRQGKGRASAAIHRWERSLPLALVALVATVAVVWGFVAFGIPALADKVARAVPPVTEVSLGRESLAMLDKLVFTPSRLPDARRRDIAAQFSRMGRDLPFAAGYRLEFRRSDQLGANALALPSGIIVVTDRLVEIAQSDDELIGVLAHEMGHVRHRHALRHVLQNSATGLIIAAITGDITSITSLAATLPTVLVDASYSRSFETEADDAAVAYLKRRGIPLKSYAAMLGRLEAEHRKKQEEKGKKEKKSLGDYFSTHPVTEERIKRVLEAGRLEHHHHHH | not failed |
| MIQMSSNDSSEVIRQCLQVLESITSDSSVPRNIRRSVNEIMDILNNESEPLFLRAASSISILEDISNDPNLPLHTRTLIWNLSSQLETIPVDE | failed |
| MGAVSAFSWASSGRLHALEVFVMKIPKTYDEIMEHFGGLIDEVTAELLESYAKGETVRVSEALAKSGRVAVEGVVLRVFPVRHFSKNGRSGKVGSVVIQDDCTVRVNFWNEAAEIIEAGDIVEGARIKVRGYARGEEIHVNSLSEVEVFVDFVNISELDEKVGERVNVKGFVSGLGEPEKANEIYISDETGRVKVLLENESLYYAVDIGSYVEIYNALAGEDGIYVDRNSRFSVGELEHHHHHH | failed |
| MQKLVEQVWDYTKHAKFYSYRPNYAPKTIDMLISLVGKKDIKVADIGAGTGNLSIMLLERGCKVVSVEPNDAMREIGIERTKDQKIDWVRATGLNSTLQNSEFDWVTFGSSFNVMDRNEALEEAHRLLKSEGYFSCMWNHRDLNDPVQKIAEDTIVEFVPNYTRGTRREDQRPIIESRKDLFDNIVYIEEDFYFHQSIENYINAWKSVKNPYWDLETDEGNELFNKISNKISQRLPKEFSIKYTTRCWSAKKI | failed |
| MIFRTFIVVLCLIPCFSYGSEAYLNAAEKQFESLLELLPEDEKREWKHRDFEEVMDYSNKLDELKKTAEYIRNQSDSSDVDGILAFSFLADAIQYELDLKTSLVNDLGLHLYRSYEINNVNPVRKAIEAELVALQNASGALQLQSKLTKYFKLQREIAELSKNPPTKMTLEYRPQDNAWDSDPELVKKYVLFDWLSALSKLKEKLYELQKIKDSFASFNYLRLKDPIAFVSLGAQLAILLVAVAGYLISYTEKPSIKVVASLVAASMLLSVFLVFVSSSTIFNLIVQASIPSLFIAYWVYRNSHNKKVQPTADGRG | failed |
| MIGIVMLSKIANIDAARQGLDLKVKVLSLNKKTIKNDRGETTYFYGIIGDDTGTVSFTAWSFPAAVKSGDVVEIKNCYSSLYNGKIRIYVDSRSQVVLKPDEYLEVKRTVELVKLRDLSLTTPYVSVIGRISGIKEKNYDSDRGSKIVYQGFIEDETAKVRISSFGKPLKDGEIVRVENARVSQYNGYMGISIGENSSIDNVQAQIEVGSRPIFIAEIKSPIGGVTITGFAVSVGQGSRIFTKCSICKKILEDGKCKDHPRAPVYLDIFGYFLLSDGTGSLTCYLNKDSFLPYIKMDTEEFKSQAFSMNPNMLIKKNILGKCLSVTGDLRLRDDKITMNASSIKEADADSVKDIEKTIQEEFQLEHHHHHH | failed |
| MTKVHPKFPSTCEESLCDSKAAVVLTVWKKSLLFNCDGFTVYNANGELVFRVDNYMNCPRDNIVLMDASGFPLLSIRRKKLSLGDCWMVYDGETERDPIFTARKNVSIISNRKSLAWVSAKKTVLYEIEGSYGQRSCKILDERRNKKKTAEIKRKETVIGGVAFGKDVYKLIVESEMEPRVAMALTIILDQMFRSS | failed |
| MKAALWMAGWLALMVIVAVAGRETLRELSVFQVMELRSVIGFAMLYPLIHKFGGLTAMATARPLAHLSRNLVHYAAQLGWFYALTLISIGQVVSIEFTMPIWIAILAATFLGEHMNVWKITAVVLGLIGVVVIVRPATSSIEPGQLIALGAAVGFGISVTLMKSLTRTESTLAIIFWMLLIQSAAGLVPALWLWQWPSAYVWVWIVIIAFCGTFSHYCMARALTYADATIVVPMDFLRVPLSATAGWLIYGERLDAYTVIGAALILIGNLLNLRGAPRPPAAASIRNSP | failed |
| MKNLKRRVAVVTALALVAALTYVLWPRSESVHVTAYFPRTVGIYPGSDVRVLGVRIGEVEKITPEGDRVRVELKYDEGRRVPADSKAAIINSSVVSDRYVQLLPVYRKGPVLRNGAVIPESRTAVPVELDRVFGSLHTTADALGPQGANKDGSLSRLLGVSADNLDGQGENLNRTVEDLSQAVTTLSDGRKDLFGTVRNLQVFTAALSADDKSVRSFNTGLAEVAGQLAGERKDLADALKNLGTALGDVSAFVKNNKRSLNSNVKGLSKVTKVLVTQRAALAELLEVAPTGLSNLNNAYNPSAGTLDTRNNAQQAQDPAALMCSVLKTTGDEGGKNPDCKELKKLFDSLPKVPQGSAVTGTVDRTLGGILGASA | failed |
| MLDNKDIATPSRTRALLDKYGFNFKKSLGQNFLIDVNIINNIIDASDIDAQTGVIEIGPGMGSLTEQLARHAKRVLAFEIDQRLIPVLNDTLSPYDNVTVINEDILKANIKEAVENHLQDCEKIMVVANLPYYITTPILLNLMQQDIPIDGYVVMMQKEVGERLNAEVGSKAYGSLSIVVQYYTETSKVLTVPKSVFMPPPNVDSIVVKLMQRTEPLVTVDNEEAFFKLAKAAFAQRRKTINNNYQNYFKDGKQHKEVILQWLEQAGIDPRRRGETLSIQDFAKLYEEKKKFPQLEN | failed |
| MSVLIYVESNGSEIKKSSMDAVAYGTQVASKLGGSAIVVAIGNIPQEQLTALGNFGASKVLHVTGDAFNQNAPLASAAAVVEAAKKAGAKVIVLPKSTLVDSFAPKLASQLKAGVVTNVTELPDTSAGFQVKRSIFTGKAFATVSINTDIKVITLAKNAYQGTETGGTAAVEALSVSLTDADTKVKTTNVEKMSGELLLTEAEIVVSGGRGLKGPENWGVLLDLAKALGAATGCSKPVSDMDWRPHHEHVGQTGVKVAPNLYIAVGISGAIQHLAGVNSSKCIVVINKDPEAPFFKAADYGIVGDLFEVLPKLTEAAKLLK | failed |
| MTEKTIRVLVAGLGNMGRSHALAYHNNPGFEIVGLVNRSTPELAAELQGYTIHPDFMTALAELKPDLCSINTYSDSHADYAVAAFEAGCDVFVEKPLATTVADAERVVAAAGKAGRKLVIGYILRHHPSWMKLIGEARKLGPPYVFRMNLNQQSSGPTWATHKSLMRTTSPIVDCGVHYVDVMCQITDARAVEVRGMGLRMSDEIAADMYNYGHLQVLFEDGSVGWYEAGWGPMISETAFFVKDVMSPKGAVSIVMDPNAKSDDIDTHTKTSVIRLHTAETGPDGKFIRPDQDMTMEGEPGHQALCDLEQAFMLRAIREDLDLDRHMADAVASLRICLAADESVRTGQPVRL | failed |
| MPINTPENISDNTSETSPELLHFNQLNLPPALLTRLDEIGYQQMTPVQSLSLPVILNNTDAVVRADTGSGKTTAFALTLLAKLEAKSFSPQALVLCPTRELAHQVADEVRKLAKSMLNIKILTLCGGEPSRIQTNSLEHGAHVLVGTPGRVLDHLEQRNVDLSMLTTLVLDEADRMLEMGFQDSLNAIVKHIPKTRQTLLFSATYPKNIAALAEQVTTKARNIEAIQEQAKPQIEQLFYAMNNEDSAQLVMNLLGDHQPENCLVFCNTKNEVKDIFNTLRANKFSVLALHGELEQKDRDQAIIQFSNGSARVLIATDVASRGLDIAELDLVISVNMAHDLDTHTHRIGRTGRAGKEGVAITLIAEKDDYKMRLLEDTFAEPIQVKPAPALSNNRPLKANMSTIQVSGGKKDKLRPGDIVGALTKDNVLSADDIGKIKLESTFGFVAVNSRLAKHALGLINNNKIKGKKFRAKVL | failed |
| MLSEQKEIAMQVSGMTCAACAARIEKGLKRMPGVTDANVNLATETVNVIYDPAETGTAAIQEKIEKLGYHVVTEKAEFDIEGMTCAACANRIEKRLNKIEGVANAPVNFALETVTVEYNPKEASVSDLKEAVDKLGYKLKLKGEQDS | not failed |
| MENVKKCKNFLSTLIKLASSGKQSTETAANVKELVQNLLDGKIEAEDFTSRLYRELNSSPQPYLVPFLKRSLPALRQLTPDSAAFI | failed |
| MDFFFVEYRDPLVGLIILTILVFVVAVANYIWKIFANKDEEQKLEKFIKKFEMDNAHKELLRNSSLSFGNLSFLAEIFTKSGEFEKATQIYLIALEKCKDKQEREFIFLSLAKVYFKAGFLERAKEVLLQALKLRPRNIQALKLLKIVYLKLRSYKENLELLECLFELNEDVQKERDFIKALELCTFNITDEEKKKKLLEFKIEDNPMLGRLVFEKYHMFLGQNFFDICDLLYRENEAFNLENQDFLEFFYALGKISKHDDTHQFVFKNSNFKMLKILKDNSFNAGLEFSYRCSECKNVMPLFFYHCPVCYEFNTCKIIYEVKNNETH | failed |
| MMIDPELRPAFLPAGKLRAAINLGNPILAGTDAAGQAVGVSVDLAREFARRLNAGIELRVFDTAGQSVDAVTREEADIGFFAIDPARGAGIAFTGPYVLIEGAYLVRDDSPLQANEDVDRAGKRVTVGKGSAYDLHLTRALQHLEHHHHHH | not failed |
| LPVILWFLAHGLDVVFIDYPRDPATGVQYYCDSIAAAKSLLDAVLASRQLGLSPEAPLGLWGFSQGGGATGWAAQLQDYAPDVRPKAAVVGAPPVDLFRVLDTVDGGLLTGVIAYAIAGLAVNSSEMFEEIMSVLNERGVSDVLKNITSCAGGSLLASGYSSSRGWTHQGTPLADILDDLPLVVAEFGKQKLGRVAPEIPVLLWGSKNDDVIPIDPIRELRDSWADKGTPLTWHESQAPRVPGRTGLNHFGPYFRNLEKYSGWLIDHL | failed |
